Source: patent US20220307010A1 (TWIST BIOSCIENCE, published 2022)

T1: TIGIT (T cell immunoreceptor with Ig and ITIM domains) (human, UniProt Q495A1 22-141, limits assumed)
T1 construct: also called hTIGIT; human TIGIT
T1 sequence (looked up): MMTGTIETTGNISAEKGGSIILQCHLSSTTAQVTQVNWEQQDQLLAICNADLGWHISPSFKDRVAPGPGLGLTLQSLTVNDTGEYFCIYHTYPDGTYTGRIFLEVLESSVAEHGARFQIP

T2: TIGIT (T cell immunoreceptor with Ig and ITIM domains) (human, UniProt Q495A1 22-141, limits assumed)
T2 construct: also called hTIGIT; human TIGIT
T2 sequence (looked up): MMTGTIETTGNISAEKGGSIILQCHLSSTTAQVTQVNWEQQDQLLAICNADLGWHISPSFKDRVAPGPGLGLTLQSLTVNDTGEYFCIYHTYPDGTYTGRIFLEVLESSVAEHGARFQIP


molecular target: T1, TIGIT (T cell immunoreceptor with Ig …); test: SPR kinetics

Binder	Kd	koff	kon
TIGIT-211-93 (antibody, V domains shown) VH: EVQLLESGGGLVQPGGSLRLSCAASGFTFSRYFMGWVRQAPGKGLEWVSEISPSGKKKYYADSVKGRFTISRDNSKNTLYLQMNSLRAEDTAVYYCAKSSFDKYNFDYWGQGTLVTVSS VL: DIQMTQSPSSLSASVGDRVTITCSASQDINKYLNWYQQKPGKAPKLLIYHTSRLQSGVPSRFSGSGSGTDFTLTISSLQPEDFATYYCQQFAYFPATFGQGTKVEIK	1240 nM	0.0281 s⁻¹	22700 M⁻¹ s⁻¹
TIGIT-211-95 (antibody, V domains shown) VH: EVQLLESGGGLVQPGGSLRLSCAASGFTFPKYGMAWVRQAPGKGLEWVSTISSGGGYTYYPDSVKGRFTISRDNSKNTLYLQMNSLRAEDTAVYYCARDTYLHFDYWGQGTLVTVSS VL: DIQMTQSPSSLSASVGDRVTITCRASQGVRTSLAWYQQKPGKAPKLLIYAKNNRPSGVPSRFSGSGSGTDFTLTISSLQPEDFATYYCQQSYSAPYTFGQGTKVEIK	355 nM	0.0756 s⁻¹	213000 M⁻¹ s⁻¹
TIGIT-211-13 (antibody, V domains shown) VH: EVQLLESGGGLVQPGGSLRLSCAASGFTFNKYPMMWVRQAPGKGLEWVSYISSSGSSTYYADSVKGRFTISRDNSKNTLYLQMNSLRAEDTAVYYCARVIAAAGAFDYWGQGTLVTVSS VL: DIQMTQSPSSLSASVGDRVTITCRASQSIREYLHWYQQKPGKAPKLLIYFGSELRKGVPSRFSGSGSGTDFTLTISSLQPEDFATYYCGQGVLWPATFGQGTKVEIK	221 nM	0.326 s⁻¹	1.48e+06 M⁻¹ s⁻¹
TIGIT-211-116 (antibody, V domains shown) VH: EVQLLESGGGLVQPGGSLRLSCAASGFTFSRYFMGWVRQAPGKGLEWVSAISGSGGNTYYADSVKGRFTISRDNSKNTLYLQMNSLRAEDTAVYYCARVWRNHLDYWGQGTLVTVSS VL: DIQMTQSPSSLSASVGDRVTITCRASQTIERRLNWYQQKPGKAPKLLIYHDNKRPSGVPSRFSGSGSGTDFTLTISSLQPEDFATYYCQQGYTLPWTFGQGTKVEIK	269000 nM	0.105 s⁻¹	389 M⁻¹ s⁻¹
TIGIT-211-77 (antibody, V domains shown) VH: EVQLLESGGGLVQPGGSLRLSCAASGFTFGNYAMAWVRQAPGKGLEWVSSIWPSGGQTWYADSVKGRFTISRDNSKNTLYLQMNSLRAEDTAVYYCAKGGTSFDYWGQGTLVTVSS VL: DIQMTQSPSSLSASVGDRVTITCRASQSVRSYLNWYQQKPGKAPKLLIYAASSLYSGVPSRFSGSGSGTDFTLTISSLQPEDFATYYCQQYASVPVTFGQGTKVEIK	683 nM	0.0417 s⁻¹	61000 M⁻¹ s⁻¹
TIGIT-211-15 (antibody, V domains shown) VH: EVQLLESGGGLVQPGGSLRLSCAASGFTFSSAAMSWVRQAPGKGLEWVSGISPSGGITTYADSVKGRFTISRDNSKNTLYLQMNSLRAEDTAVYYCASLSRGYWGQGTLVTVSS VL: DIQMTQSPSSLSASVGDRVTITCQSSQSVYSNNELSWYQQKPGKAPKLLIYGTSYRYSGVPSRFSGSGSGTDFTLTISSLQPEDFATYYCSSWAGSRSGTVFGQGTKVEIK	301 nM	0.00712 s⁻¹	23600 M⁻¹ s⁻¹
TIGIT-211-98 (antibody, V domains shown) VH: EVQLLESGGGLVQPGGSLRLSCAASGFTFETYAMSWVRQAPGKGLEWVSVISGSGGRPNYADSVKGRFTISRDNSKNTLYLQMNSLRAEDTAVYYCAREGLWAFDYWGQGTLVTVSS VL: DIQMTQSPSSLSASVGDRVTITCRASHFIGSLLSWYQQKPGKAPKLLIYETSKLASGVPSRFSGSGSGTDFTLTISSLQPEDFATYYCQQSYSYPRTFGQGTKVEIK	574000 nM	0.098 s⁻¹	171 M⁻¹ s⁻¹

molecular target: T2, TIGIT (T cell immunoreceptor with Ig …); test: SPR, VHH-V5-His

Binder	koff	kon	Kd
TIGIT-30-20 VHH-V5-His (VHH, not shown: V5-His tag) VHH: EVQLVESGGGLVQAGGSLRLSCAASGPTFSIYDMGWFRQAPGKEREFVAVINWSRGSTFYADSVKGRFTISADNAKNTVYLQMNSLKPEDTAVYYCAAGVWSSLRHTAANWGQGTQVTVSS	0.002 s⁻¹	10000 M⁻¹ s⁻¹	–
TIGIT-30-43 VHH-V5-His (VHH, not shown: V5-His tag) VHH: EVQLVESGGGLVQAGGSLRLSCAASGFTFSTSWMGWFRQAPGKERELVAARNSGGNTNYADSVKGRFTISADNAKNTVYLQMNSLKPEDTAVYYCAADVWYGSTWRNWGQGTQVTVSS	0.008 s⁻¹	70000 M⁻¹ s⁻¹	–
TIGIT-30-01 VHH-V5-His (VHH, not shown: V5-His tag) VHH: EVQLVESGGGLVQAGGSLRLSCAASGFAFSSYWMGWFRQAPGKERELVAARNSGGNTNYADSVKGRFTISADNAKNTVYLQMNSLKPEDTAVYYCAADVWYGSTWRNWGQGTQVTVSS	0.08 s⁻¹	10000 M⁻¹ s⁻¹	–
TIGIT-30-40 VHH-V5-His (VHH, not shown: V5-His tag) VHH: EVQLVESGGGLVQAGGSLRLSCAASGFTFSGNWMGWFRQAPGKEREWVVGISSGGSTHYADSVKGRFTISADNAKNTVYLQMNSLKPEDTAVYYCAADVWYGSTWRNWGQGTQVTVSS	0.006 s⁻¹	30000 M⁻¹ s⁻¹	–
TIGIT-30-15 VHH-V5-His (VHH, not shown: V5-His tag) VHH: EVQLVESGGGLVQAGGSLRLSCAASGFTFSGNWMGWFRQAPGKEREWVSGISSGGGRTYYADSVKGRFTISADNAKNTVYLQMNSLKPEDTAVYYCAADVWYGSTWRNWGQGTQVTVSS	0.004 s⁻¹	20000 M⁻¹ s⁻¹	–
TIGIT-29-01 VHH-V5-His (VHH, not shown: V5-His tag) VHH: EVQLVESGGGLVQAGGSLRLSCAASGRTFSNYAMGWFRQAPGKEREFVAAITWSGTRTDYADSVKGRFTISADNAKNTVYLQMNSLKPEDTAVYYCAAAAWTIYEYDYWGQGTQVTVSS	0.01 s⁻¹	30000 M⁻¹ s⁻¹	–
TIGIT-29-33 VHH-V5-His (VHH, not shown: V5-His tag) VHH: EVQLVESGGGLVQAGGSLRLSCAASGFIFSTYAMGWFRQAPGKERELVSAITRSGITTYYADSVKGRFTISADNAKNTVYLQMNSLKPEDTAVYYCAAAAWTIYEYDYWGQGTQVTVSS	0.04 s⁻¹	20000 M⁻¹ s⁻¹	1520 nM
TIGIT-29-12 VHH-V5-His (VHH, not shown: V5-His tag) VHH: EVQLVESGGGLVQAGGSLRLSCAASGSTFSSYAMGWFRQAPGKEREFVAAITWSGTRTNYADSVKGRFTISADNAKNTVYLQMNSLKPEDTAVYYCAAAAWTIYTYDSWGQGTQVTVSS	0.1 s⁻¹	10000 M⁻¹ s⁻¹	–
TIGIT-29-07 VHH-V5-His (VHH, not shown: V5-His tag) VHH: EVQLVESGGGLVQAGGSLRLSCAASGSIFSNYAMGWFRQAPGKEREFVATISRGGTRTNYADSVKGRFTISADNAKNTVYLQMNSLKPEDTAVYYCAAAAWTIYAYNYWGQGTQVTVSS	0.004 s⁻¹	8000 M⁻¹ s⁻¹	–
TIGIT-29-30 VHH-V5-His (VHH, not shown: V5-His tag) VHH: EVQLVESGGGLVQAGGSLRLSCAASGFTFSSYAMGWFRQAPGKEREFVAAITWSGTRTDYADSVKGRFTISADNAKNTVYLQMNSLKPEDTAVYYCAAAAWRYSEYDYWGQGTQVTVSS	0.08 s⁻¹	300000 M⁻¹ s⁻¹	–
TIGIT-29-06 VHH-V5-His (VHH, not shown: V5-His tag) VHH: EVQLVESGGGLVQAGGSLRLSCAASGGTFRSYVMGWFRQAPGKEREWVATINSSGSRTYYADSVKGRFTISADNAKNTVYLQMNSLKPEDTAVYYCAARPNYRDYEYWGQGTQVTVSS	0.02 s⁻¹	–	433000 nM
TIGIT-30-52 VHH-V5-His (VHH, not shown: V5-His tag) VHH: EVQLVESGGGLVQAGGSLRLSCAASGRTFSNYFMGWFRQAPGKERESVATVTWRDNITYYADSVKGRFTISADNAKNTVYLQMNSLKPEDTAVYYCASAGRWGQGTQVTVSS	0.1 s⁻¹	30000 M⁻¹ s⁻¹	4240 nM
TIGIT-30-49 VHH-V5-His (VHH, not shown: V5-His tag) VHH: EVQLVESGGGLVQAGGSLRLSCAASGNIFSRYIMGWFRQAPGKEREWVAGISNGGTTKYADSVKGRFTISADNAKNTVYLQMNSLKPEDTAVYYCAQGWKIVPTNWGQGTQVTVSS	0.08 s⁻¹	90000 M⁻¹ s⁻¹	–
TIGIT-30-30 VHH-V5-His (VHH, not shown: V5-His tag) VHH: EVQLVESGGGLVQAGGSLRLSCAASGGTFSGRGMGWFRQAPGKEREWVSSVYIFGGSTYYADSVKGRFTISADNAKNTVYLQMNSLKPEDTAVYYCANSNKPKFDWGQGTQVTVSS	0.006 s⁻¹	10000 M⁻¹ s⁻¹	387 nM
TIGIT-29-10 VHH-V5-His (VHH, not shown: V5-His tag) VHH: EVQLVESGGGLVQAGGSLRLSCAASGRTFSNYGMGWFRQAPGKEREFVSGISGSGGRTSYADSVKGRFTISADNAKNTVYLQMNSLKPEDTAVYYCAANLWYPVDRLNTGFNYWGQGTQVTVSS	0.003 s⁻¹	10000 M⁻¹ s⁻¹	–
TIGIT-29-18 VHH-V5-His (VHH, not shown: V5-His tag) VHH: EVQLVESGGGLVQAGGSLRLSCAASGSTFSNYAMGWFRQAPGKEREFVSAINSSGSRTYYADSVKGRFTISADNAKNTVYLQMNSLKPEDTAVYYCAARLWGTWTAGDYDYWGQGTQVTVSS	0.007 s⁻¹	20000 M⁻¹ s⁻¹	–
TIGIT-29-22 VHH-V5-His (VHH, not shown: V5-His tag) VHH: EVQLVESGGGLVQAGGSLRLSCAASGSILSSYTMGWFRQAPGKEREFVSTISRSSTRTYYADSVKGRFTISADNAKNTVYLQMNSLKPEDTAVYYCAARLWGTWTAGDYDYWGQGTQVTVSS	0.003 s⁻¹	6000 M⁻¹ s⁻¹	–
TIGIT-29-34 VHH-V5-His (VHH, not shown: V5-His tag) VHH: EVQLVESGGGLVQAGGSLRLSCAASGFTFRNYAMGWFRQAPGKEREFVSSISSSSSRTSYADSVKGRFTISADNAKNTVYLQMNSLKPEDTAVYYCAARLWGTWTAGDYDYWGQGTQVTVSS	0.03 s⁻¹	30000 M⁻¹ s⁻¹	–

molecular target: T1, TIGIT (T cell immunoreceptor with Ig …); test: ELISA

Binder	ELISA
TIGIT-211-13 (antibody, V domains shown) VH: EVQLLESGGGLVQPGGSLRLSCAASGFTFNKYPMMWVRQAPGKGLEWVSYISSSGSSTYYADSVKGRFTISRDNSKNTLYLQMNSLRAEDTAVYYCARVIAAAGAFDYWGQGTLVTVSS VL: DIQMTQSPSSLSASVGDRVTITCRASQSIREYLHWYQQKPGKAPKLLIYFGSELRKGVPSRFSGSGSGTDFTLTISSLQPEDFATYYCGQGVLWPATFGQGTKVEIK	15
TIGIT-211-15 (antibody, V domains shown) VH: EVQLLESGGGLVQPGGSLRLSCAASGFTFSSAAMSWVRQAPGKGLEWVSGISPSGGITTYADSVKGRFTISRDNSKNTLYLQMNSLRAEDTAVYYCASLSRGYWGQGTLVTVSS VL: DIQMTQSPSSLSASVGDRVTITCQSSQSVYSNNELSWYQQKPGKAPKLLIYGTSYRYSGVPSRFSGSGSGTDFTLTISSLQPEDFATYYCSSWAGSRSGTVFGQGTKVEIK	11.3
